Where a chain is given by its changes, count along the chain named. In names and notes the source's numbering stands.
T1: PUF4 RNA-binding domain (Saccharomyces cerevisiae, UniProt P25339 537-888)
T1 sequence: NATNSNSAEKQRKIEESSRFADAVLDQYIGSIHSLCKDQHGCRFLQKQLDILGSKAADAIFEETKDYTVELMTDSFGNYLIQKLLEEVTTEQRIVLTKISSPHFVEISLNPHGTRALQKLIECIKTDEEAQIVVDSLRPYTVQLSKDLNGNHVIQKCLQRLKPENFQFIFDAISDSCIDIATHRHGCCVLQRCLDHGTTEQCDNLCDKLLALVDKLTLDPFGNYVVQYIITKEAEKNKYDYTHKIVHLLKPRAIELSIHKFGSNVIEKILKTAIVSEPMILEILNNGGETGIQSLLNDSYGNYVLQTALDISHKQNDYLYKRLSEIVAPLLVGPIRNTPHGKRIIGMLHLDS

B1: Id_iii_S2_P4E.5_K4.1_C4.3_[T-3C]_H4.1_A4.1_F4.1_T4.2 (ssRNA)
RNA: UUUGAUUAAUAUGAUAUCGUUCUUUCUCCUUGUAUAUUAGUUUCUUUCUCGAUAUCAUAUUAAUCUUU
B2: Id_iii_S2_P4E.5_K4.1_C4.3_[T-1C]_H4.1_A4.1_F4.1_T4.2 (ssRNA)
RNA: B1 RNA with C28U, U30C
B3: Id_iii_S2_P4E.5_K4.1_C4.3_H4.1_A4.1_F4.1_T4.2_[G10A] (ssRNA)
RNA: B1 RNA with C28U, G40A
B4: Id_iii_S2_P4E.8_K4.4_C4.3_[T-3C]_H4.1_A4.2_F4.1_T4.2 (ssRNA)
RNA: B1 RNA with A36U
B5: Id_iii_S2_P4E.6_K4.2_C4.3_[C-2T]_H4.2_A4.1_F4.1_T4.2 (ssRNA)
RNA: B1 RNA with C28U, C29U, G32A
B6: Id_iii_S2_P4E.7_K4.3_C4.3_[T-1A]_H4.3_A4.1_F4.1_T4.2 (ssRNA)
RNA: B1 RNA with C28U, U30A, U31A, G32C, U33A, A34C
B7: Id_iii_S2_P4E.6_K4.2_C4.3_[C-2G]_H4.2_A4.1_F4.1_T4.2 (ssRNA)
RNA: B1 RNA with C28U, C29G, G32A
B8: Id_iii_S2_P4E.7_K4.3_C4.3_[T-1C]_H4.3_A4.1_F4.1_T4.2 (ssRNA)
RNA: B1 RNA with C28U, U30C, U31A, G32C, U33A, A34C
B9: Id_iii_S2_P4E.5_K4.1_C4.3_[C-2T]_H4.1_A4.1_F4.1_T4.2 (ssRNA)
RNA: B1 RNA with C28U, C29U
B10: Id_iii_S2_P4E.6_K4.2_C4.3_[T-1G]_H4.2_A4.1_F4.1_T4.2 (ssRNA)
RNA: B1 RNA with C28U, U30G, G32A
B11: Id_iii_S2_P4E.6_K4.2_C4.3_[T-1A]_H4.2_A4.1_F4.1_T4.2 (ssRNA)
RNA: B1 RNA with C28U, U30A, G32A
B12: Id_iii_S2_P4E.6_K4.2_C4.3_H4.2_A4.1_F4.1_T4.2_[G10C] (ssRNA)
RNA: B1 RNA with C28U, G32A, G40C
B13: Id_iii_S2_P4E.7_K4.3_C4.3_H4.3_A4.1_F4.1_T4.2_[G10T] (ssRNA)
RNA: B1 RNA with C28U, U31A, G32C, U33A, A34C, G40U
B14: Id_iii_S2_P4E.6_K4.2_C4.3_H4.2_A4.1_F4.1_T4.2_[G10A] (ssRNA)
RNA: B1 RNA with C28U, G32A, G40A
B15: Id_iii_S2_P4E.6_K4.2_C4.3_[T-3C]_H4.2_A4.1_F4.1_T4.2 (ssRNA)
RNA: B1 RNA with G32A
B16: Id_iii_S2_P4E.5_K4.1_C4.3_H4.1_A4.1_F4.1_T4.2_[T11C] (ssRNA)
RNA: B1 RNA with C28U, U41C
B17: Id_iii_S2_P4E.7_K4.3_C4.3_H4.3_A4.1_F4.1_T4.2_[G10C] (ssRNA)
RNA: B1 RNA with C28U, U31A, G32C, U33A, A34C, G40C
B18: Id_iii_S2_P4E.5_K4.1_C4.3_H4.1_A4.1_F4.1_T4.2_[G10T] (ssRNA)
RNA: B1 RNA with C28U, G40U
B19: Id_iii_S2_P4E.5_K4.1_C4.3_[T-1G]_H4.1_A4.1_F4.1_T4.2 (ssRNA)
RNA: B1 RNA with C28U, U30G
B20: Id_iii_S2_P4E.5_K4.1_C4.3_H4.1_A4.1_F4.1_T4.2_[G10C] (ssRNA)
RNA: B1 RNA with C28U, G40C
B21: Id_iii_S2_P4E.5_K4.1_C4.3_[C-2A]_H4.1_A4.1_F4.1_T4.2 (ssRNA)
RNA: B1 RNA with C28U, C29A
B22: Id_iii_S2_P4E.6_K4.2_C4.3_H4.2_A4.1_F4.1_T4.2_[G10T] (ssRNA)
RNA: B1 RNA with C28U, G32A, G40U
B23: Id_iii_S2_P4E.5_K4.1_C4.3_[C-2G]_H4.1_A4.1_F4.1_T4.2 (ssRNA)
RNA: B1 RNA with C28U, C29G
B24: Id_iii_S2_P4E.7_K4.3_C4.3_H4.3_A4.1_F4.1_T4.2_[T11C] (ssRNA)
RNA: B1 RNA with C28U, U31A, G32C, U33A, A34C, U41C
B25: Id_iii_S2_P3E.5_K3.1_C3.3_[T-3A]_H3.1_A3.1_F3.1_T3.2 (ssRNA)
RNA: UUUGAUUAAUAUGAUAUCGUUCUUUCUACUUGUAUAUAUAUUCUUUCUCGAUAUCAUAUUAAUCUUU
B26: Id_iii_S2_P3E.5_K3.1_C3.3_[T-1A]_H3.1_A3.1_F3.1_T3.2 (ssRNA)
RNA: B25 RNA with A28U, U30A
B27: Id_iii_S2_P3E.5_K3.1_C3.3_H3.1_A3.1_F3.1_T3.2_[A10G] (ssRNA)
RNA: B25 RNA with A28U, A40G
B28: Id_iii_S2_P3E.6_K3.2_C3.3_H3.2_A3.1_F3.1_T3.2_[A10T] (ssRNA)
RNA: B25 RNA with A28U, G32A, A40U
B29: Id_iii_S2_P3E.7_K3.3_C3.3_[T-3G]_H3.3_A3.1_F3.1_T3.2 (ssRNA)
RNA: B25 RNA with A28G, U31A, G32C, U33A, A34C
B30: Id_iii_S2_P3E.8_K3.4_C3.3_[T-3A]_H3.1_A3.2_F3.1_T3.2 (ssRNA)
RNA: B25 RNA with U35A
B31: Id_iii_S2_P3E.9_K3.5_C3.3_H3.1_A3.2_F3.2_T3.2_[A10G] (ssRNA)
RNA: B25 RNA with A28U, U35A, U37A, A40G
B32: Id_iii_S2_P3E.7_K3.3_C3.3_[T-1G]_H3.3_A3.1_F3.1_T3.2 (ssRNA)
RNA: B25 RNA with A28U, U30G, U31A, G32C, U33A, A34C
B33: Id_iii_S2_P3E.6_K3.2_C3.3_[T-1A]_H3.2_A3.1_F3.1_T3.2 (ssRNA)
RNA: B25 RNA with A28U, U30A, G32A
B34: Id_iii_S2_P3E.5_K3.1_C3.3_[C-2G]_H3.1_A3.1_F3.1_T3.2 (ssRNA)
RNA: B25 RNA with A28U, C29G
B35: Id_iii_S2_P3E.6_K3.2_C3.3_[T-1C]_H3.2_A3.1_F3.1_T3.2 (ssRNA)
RNA: B25 RNA with A28U, U30C, G32A
B36: Id_iii_S2_P3E.8_K3.4_C3.3_[C-2A]_H3.1_A3.2_F3.1_T3.2 (ssRNA)
RNA: B25 RNA with A28U, C29A, U35A
B37: Id_iii_S2_P3E.8_K3.4_C3.3_[T-3C]_H3.1_A3.2_F3.1_T3.2 (ssRNA)
RNA: B25 RNA with A28C, U35A
B38: Id_iii_S2_P3E.6_K3.2_C3.3_[C-2T]_H3.2_A3.1_F3.1_T3.2 (ssRNA)
RNA: B25 RNA with A28U, C29U, G32A
B39: Id_iii_S2_P3E.5_K3.1_C3.3_[C-2T]_H3.1_A3.1_F3.1_T3.2 (ssRNA)
RNA: B25 RNA with A28U, C29U
B40: Id_iii_S2_P3E.9_K3.5_C3.3_[T-1G]_H3.1_A3.2_F3.2_T3.2 (ssRNA)
RNA: B25 RNA with A28U, U30G, U35A, U37A
B41: Id_iii_S2_P3E.9_K3.5_C3.3_[T-1C]_H3.1_A3.2_F3.2_T3.2 (ssRNA)
RNA: B25 RNA with A28U, U30C, U35A, U37A
B42: Id_iii_S2_P3E.6_K3.2_C3.3_[T-3A]_H3.2_A3.1_F3.1_T3.2 (ssRNA)
RNA: B25 RNA with G32A
B43: Id_iii_S2_P3E.6_K3.2_C3.3_H3.2_A3.1_F3.1_T3.2_[T9C] (ssRNA)
RNA: B25 RNA with A28U, G32A, U39C
B44: Id_iii_S2_P3E.9_K3.5_C3.3_[T-1A]_H3.1_A3.2_F3.2_T3.2 (ssRNA)
RNA: B25 RNA with A28U, U30A, U35A, U37A
B45: Id_iii_S2_P3E.6_K3.2_C3.3_H3.2_A3.1_F3.1_T3.2_[T9A] (ssRNA)
RNA: B25 RNA with A28U, G32A, U39A
B46: Id_iii_S2_P3E.5_K3.1_C3.3_H3.1_A3.1_F3.1_T3.2_[T9A] (ssRNA)
RNA: B25 RNA with A28U, U39A
B47: Id_iii_S2_P3E.7_K3.3_C3.3_[T-1C]_H3.3_A3.1_F3.1_T3.2 (ssRNA)
RNA: B25 RNA with A28U, U30C, U31A, G32C, U33A, A34C
B48: Id_iii_S2_P3E.7_K3.3_C3.3_[T-3A]_H3.3_A3.1_F3.1_T3.2 (ssRNA)
RNA: B25 RNA with U31A, G32C, U33A, A34C
B49: Id_iii_S2_P3E.7_K3.3_C3.3_[C-2G]_H3.3_A3.1_F3.1_T3.2 (ssRNA)
RNA: B25 RNA with A28U, C29G, U31A, G32C, U33A, A34C
B50: Id_iii_S2_P3E.7_K3.3_C3.3_H3.3_A3.1_F3.1_T3.2_[A10C] (ssRNA)
RNA: B25 RNA with A28U, U31A, G32C, U33A, A34C, A40C

target: T1, PUF4 RNA-binding domain; assay: Mg; RNA-MaP; 20 mM Na-HEPES pH 7.4, 30 mM KOAc, 0.75 mM MgCl2, 0.1% Tween-20, 5% glycerol, 0.1 mg/mL BSA, 2 mM DTT; 25 C; 0.0125-409.6 nM protein; details: tags: N-His6-TEV cleaved; C-SNAP kept, Cy3B-labelled; label: tethered on chip by stalled RNA polymerase

| Binder | Kd [nM] |
| --- | --- |
| UCUCUUUCUUGUAAUAAAAAAUCUCUU (ssRNA) [Id_iii_S1_P5E.9_K5.5_C5.3_H5.1_A5.2_F5.2_T5.2_[T11A]] | 412 |
| UCUCUUUGUAGCAUUAUCUCUU (ssRNA) [Ib_S1_P5E.1_K5.1_C5.1_H5.1_A5.1_[T5G]_[T6C]_F5.1_T5.1] | 15.3 |
| UCUCUUUGUUUUUUUAUCUCUU (ssRNA) [Ib_S1_P5E.1_K5.1_C5.1_H5.1_[A4T]_A5.1_[A7T]_F5.1_T5.1] | 142 |
| UCUCUUUGUCUUUUUAUCUCUU (ssRNA) [Ib_S1_P5E.1_K5.1_C5.1_H5.1_[A4C]_A5.1_[A7T]_F5.1_T5.1] | 113 |
| B1 | 0.191 |
| B2 | 0.205 |
| B3 | 0.37 |
| B4 | 0.923 |
| B5 | 20.2 |
| B6 | > 2300 |
| B7 | 13.3 |
| B8 | > 2300 |
| B9 | 1.08 |
| B10 | 10.9 |
| B11 | 6.83 |
| B12 | 5.27 |
| B13 | 486 |
| B14 | 10.7 |
| B15 | 3.56 |

| Binder | Kd [nM] |
| --- | --- |
| B16 | 0.401 |
| B17 | 494 |
| B18 | 0.203 |
| B19 | 0.201 |
| B20 | 0.519 |
| B21 | 0.601 |
| B22 | 3.84 |
| B23 | 0.508 |
| B24 | > 2300 |
| B25 | 1.18 |
| B26 | 1.7 |
| B27 | 2.21 |
| B28 | 43.5 |
| B29 | 156 |
| B30 | 3.74 |
| B31 | 661 |
| B32 | 430 |
| B33 | 122 |
| B34 | 2.14 |

| Binder | Kd [nM] |
| --- | --- |
| B35 | 28.7 |
| B36 | 26.3 |
| B37 | 2.54 |
| B38 | 111 |
| B39 | 1.52 |
| B40 | 32.2 |
| B41 | 11.9 |
| B42 | 91.2 |
| B43 | 168 |
| B44 | 28.6 |
| B45 | 321 |
| B46 | 3.53 |
| B47 | 321 |
| B48 | 213 |
| B49 | 0.454 |
| B50 | 495 |
| UCUCUUUCUUGUAAUAAAAUCUCUCUU (ssRNA) [Id_iii_S1_P5E.9_K5.5_C5.3_H5.1_A5.2_F5.2_T5.2_[A12C]] | 411 |
| UCUCUUUGUCUUCUUAUCUCUU (ssRNA) [Ib_S1_P5E.1_K5.1_C5.1_H5.1_[A4C]_A5.1_[A7C]_F5.1_T5.1] | 1090 |
| UCUCUUUGUUUUGUUAUCUCUU (ssRNA) [Ib_S1_P5E.1_K5.1_C5.1_H5.1_[A4T]_A5.1_[A7G]_F5.1_T5.1] | 426 |
